This is an account of results in publication PMC8469155.

Assay [1] addresses L19-TNF^I97A (human). Kind of assay: SEC; Superdex 200 Increase 10/300 column, ÄKTA FPLC, protein dialysed into PBS pH 7.4; peak at 12 mL corresponds to the homotrimer. On the technique in general: Size exclusion chromatography separates by hydrodynamic size, large species first.
For assay [2], the target named is alternatively spliced EDB domain of fibronectin (recombinant EDB protein).
The target in the next assay is L19-TNF^Q102N (human). Kind of assay: SEC; Superdex 200 Increase 10/300 column, ÄKTA FPLC, protein dialysed into PBS pH 7.4; peak at 12 mL corresponds to the homotrimer.
Another assay addresses L19-TNF^S147A (human). Described as above.
In assay [3] the target is L19-TNF^WT (human). The description is as above.
In assay [4] the target is tumor necrosis factor receptor 1 (TNFR-1) (UniProt P19438). Description: SPR. To be noted: response read at end of injection (~50-55 s), L19-TNF mutein captured on EDB-coated CM5 chip, read off a plot.
For a further assay, the target named is L19-TNF^Y59F (human). Description: SEC; Superdex 200 Increase 10/300 column, ÄKTA FPLC, protein dialysed into PBS pH 7.4; peak at 12 mL corresponds to the homotrimer.
The target in another assay is L19-TNF^Y119S (human). The description is as above.
Assay [5] concerns the target L19-TNF^I97A (human). Kind of assay: SPR; BIAcore X100; EDB covalently immobilised on a CM5 chip (1500-2000 RU), L19-TNF protein captured on it through L19-EDB (340 RU); TNFR1 injected for 30 s in a 1:2 dilution series from 1000 nM; PBS pH 7.4; regeneration 10 mM HCl; independent chip for each protein; global fit, 1:1 Langmuir model.
Assay [6] concerns the target L19-TNF^WT (human). Described as above.

As to L19-TNF^I97A, the stoichiometry N with L19-TNF^I97A (human) [1] came out at 3. In assay [2], the EC50 of cytotoxicity on A-375 cells (cell viability, with actinomycin D), 100 nM EDB Coating (M); without EDB coating 2.273 × 10^−9 M worked out at 2.25e-10 M.
The substance L19-TNF^Q102N came in with a stoichiometry N with L19-TNF^Q102N (human) of 3.
L19-TNF^S147A returned a stoichiometry N with L19-TNF^S147A (human) of 3.
In turn, L19-TNF^WT yielded a stoichiometry N with L19-TNF^WT (human) [3] of 3.
Turning to L19-TNF^WT Q102N, the response was 28 RU in assay [4] (125 nM TNFR1), 45 RU in assay [4] (500 nM TNFR1) and 45 RU in [4] (1000 nM TNFR1).
L19-TNF^Y59F had a stoichiometry N with L19-TNF^Y59F (human) of 3.
Consider L19-TNF^Y119S, for which, in the assay with L19-TNF^Y119S (human), the stoichiometry N came to 3.
As to “tumor necrosis factor receptor 1 (TNFR-1) (from UniProt P19438 30-455)”, in the assay with L19-TNF^I97A (human) [5], the fold faster dissociation rate against L19-TNF^WT came to 50 fold. This substance also returned a Kd in the assay with L19-TNF^WT (human) [6] of 10 nM.

Broadly, the stoichiometry N is the number of molecules, sites or subunits per partner or assembly. By Kd is commonly meant the constant that tells how readily two partners part at equilibrium. Read a low Kd as tighter binding.
